Laboratory results taken from US10662230B2, “Cyclic RGD cell-binding motif and uses thereof” (Spiber Technologies AB, priority 2015, dated 2020).
Numbering of substitutions follows the chain as printed.

B1: RGD-silk: 4RepCT silk with the linear RGD containing peptide (SEQ ID NO 12) of Widhe et al. (2013) (protein)
chain: GPNSRGDAGAASGQGGYGGLGQGGYGQGAGSSAAAAAAAAAAAAGGQGGQGQGGYGQGSGGSAAAAAAAAAAAAAAAGRGQGGYGQGSGGNAAAAAAAAAAAAAAAGQGGQGGYGRQSQGAGSAAAAAAAAAAAAAAGSGQGGYGGQGQGGYGQSSASASAAASAASTVANSVSRLSSPSAVSRVSSAVSSLVSNGQVNMAALPNIISNISSSVSASAPGASGCEVIVQALLEVITALVQIVSSSSVGYINPSAVNQITNVVANAMAQVMG
modifications: Fusion protein
B2: FNSS-silk: 4RepCT silk with linear control motif STGRGDSPAS (SEQ ID NO: 11), cysteines substituted for serines (protein)
chain: GPNSSTGRGDSPASGSASGQGGYGGLGQGGYGQGAGSSAAAAAAAAAAAAGGQGGQGQGGYGQGSGGSAAAAAAAAAAAAAAAGRGQGGYGQGSGGNAAAAAAAAAAAAAAAGQGGQGGYGRQSQGAGSAAAAAAAAAAAAAAGSGQGGYGGQGQGGYGQSSASASAAASAASTVANSVSRLSSPSAVSRVSSAVSSLVSNGQVNMAALPNIISNISSSVSASAPGASGCEVIVQALLEVITALVQIVSSSSVGYINPSAVNQITNVVANAMAQVMG
modifications: Fusion protein
B3: FNVS-silk: 4RepCT silk with original fibronectin motif VTGRGDSPAS (SEQ ID NO: 9), linear native control (protein)
chain: B2 chain with S5V
modifications: Fusion protein

Assays:
Type in all cases: cell-based
[1] = tested on: Normal human epidermal keratinocytes (KC); assay: Early attachment assay, keratinocytes on silk films; details: for adhesion in each individual experiment: KC on tested silk films
Description: Normal human epidermal keratinocytes from adult skin (NHEK-ad) were purchased from Lonza. Subculture, proliferation and migration experiments were done in KGM-Gold (Lonza), containing bovine pituitary extract, whereas adhesion experiments were performed in KGM-CD (chemically defined), supplemented with CaCl2) to give 1.2 mM Ca^2+.
Cells were harvested at passage 3-8, seeded at 20 000/cm^2 and allowed to adhere to the films or controls for 1 h in a cell incubator before gentle washing twice with pre-warmed phosphate buffered saline (PBS) followed by 10 min fixation with 96% ethanol. After three washings in water, cells were stained for 30 min with 0.1% Crystal Violet in H2O. Plates were dried after extensive washing in water.
Attachment and morphology of cells bound to the films obtained in Example 3 were documented by taking micrographs at 2× and 10× magnification in an inverted bright field microscope. The color was then dissolved in 40 μL 20% acetic acid for 10 min, and 35 μL of the solution was transferred to a 384-well plate for optical density measurement at 595 nm (TECAN Infinite M200). Wells with cells fixed without pre-washing was used as positive control. Wells with no cells were used as blank. Experiments were run in hexaplicates and repeated three times.
Determination of cell coverage area within a defined region (9.12 mm^2) of the micrographs (at 2× magnification) was done using the software NIS elements BR (Nikon).
After seeing this positive effect of the introduced FNCC motif, we wanted to find out how well the FNCC-silk would compare to native, full length fibronectin, where the RGD is presented on a turn loop constrained by the structure. We therefore used fibronectin from bovine plasma (BFN) to coat cell culture wells, as well as naked cell culture treated plastic (TCT), on which KC can be cultured, as a control. Serum-free experimental conditions was chosen to avoid possible interactions between the matrices and serum proteins that potentially could give rise to increased cell adherence.
For this purpose, we used two FN-silk variants where a linear RGD presentation is expected (FIG. 1a). The first variant (FNVS; SEQ ID NO: 15), contains the original sequence of the RGD-containing motif in fibronectin, to show the effect of the native flanking amino acids without influence of the loop conformation. In the second variant (FNSS; SEQ ID NO: 14), the two flanking cysteines in FNCC were substituted for serine, which resembles cysteine but lacks the —SH-group and is therefore unable to form disulfide bridges. The different FN-silk variants, as well as RGD-silk (SEQ ID NO: 16) and WT-silk (SEQ ID NO: 2), were evaluated with primary KC. Cells were analyzed both for early attachment (FIG. 5), spreading and formation of stress fibers (FIG. 6), and focal adhesions (FIG. 7). Early attachment assay and cellular stainings were performed as detailed in Example 6.

[2] = tested on: Normal human epidermal keratinocytes (KC); assay: Formation of focal adhesions (F-actin/vinculin staining), keratinocytes; details: 3 h adherence, 63× magnification
Description: Cells were harvested at passage 3-8, seeded at 3500/cm^2 and allowed to adhere onto films for 20 min, 1 or 3 hours in chamber slides. After gentle washing, cells were fixed with 4% paraformaldehyde, permeabilized with 0.1% Triton X-100 in PBS, and blocked with 1% bovine serum albumin (BSA, AppliChem) in PBS.
Primary antibody were used at the following concentrations in 1% BSA: mouse anti human vinculin (Sigma V9131) at 9.5 μg/ml, mouse-anti human beta1-integrin (activated conformation, clone HUTS-4) at 3.3 μg/mL, or mouse-anti human alpha5-integrin (ligand bound conformation, clone SNAKA-51) at 2.5 μg/mL, both Millipore.
Secondary antibody was AlexaFlour488 goat anti mouse IgG (H+L), cross adsorbed (Invitrogen), used at 1:500. Phalloidin-AlexaFluor594 (Life Technologies) were used at 1:40 to detect filamentous actin. DAPI was used for nuclear staining. Slides were mounted in Fluorescence mounting medium (Dako, Copenhagen).
For microscopic analysis of cell adhesion (formation of focal adhesions and stress fibers), a confocal microscope was used (Carl Zeiss LSM 710) at 10× and 63× magnification.
Quality of focal adhesions were graded from 1-4 regarding presence of small and dim focal adhesion (=1p), small and distinct focal adhesions (=2p), abundant focal adhesions (=3p) and large and bright focal adhesions (=4p), and multiplied with the portion of positive cells expressing this specific type of focal adhesions (0-4, where 0≈none of, 1≈one fourth of, 2≈half of, 3≈three fourths of, and 4≈all of the focal adhesion-positive cells.)
Formation of focal adhesions within the cells was analyzed after 3 h by staining for F-actin in combination with vinculin, which is one of the major components of the focal adhesion complex. Co-staining of F-actin and vinculin is thus a sign of integrin-involved, well established binding of cells to the underlying substrate. Focal adhesions appear as yellow-greenish elongations of the F-actin filaments, often situated close to the cell membrane.
The results from the analysis of formation and characterization of focal adhesions in KC after adherence for 3 h onto films of WT-silk (SEQ ID NO: 2) or silk functionalized with FNCC (SEQ ID NO: 13), FNVS (SEQ ID NO: 15), FNSS (SEQ ID NO: 14) or RGD (SEQ ID NO: 16) is presented in FIG. 7. Slides were scanned with a confocal microscope at 10× for overview (FIG. 7a) and at 63× for details (FIG. 7b). Two types of grading of the focal adhesions in the cells were performed.

[3] = tested on: Normal human epidermal keratinocytes (KC); assay: Cell spreading by F-actin staining, keratinocytes; details: 3 h adhesion; for spreading of KC (total cell area in 4× micrographs): seeding 3 500/cm^2
Description: Cells were harvested at passage 3-8, seeded at 3500/cm^2 and allowed to adhere onto films for 20 min, 1 or 3 hours in chamber slides. After gentle washing, cells were fixed with 4% paraformaldehyde, permeabilized with 0.1% Triton X-100 in PBS, and blocked with 1% bovine serum albumin (BSA, AppliChem) in PBS. Secondary antibody was AlexaFlour488 goat anti mouse IgG (H+L), cross adsorbed (Invitrogen), used at 1:500. Phalloidin-AlexaFluor594 (Life Technologies) were used at 1:40 to detect filamentous actin. DAPI was used for nuclear staining. Slides were mounted in Fluorescence mounting medium (Dako, Copenhagen). The stained cells were analyzed using an inverted microscope (Nikon Eclipse Ti) at 4× and 10× magnification. Excitation at 563/45 nm and detection at 625/50 nm was used for red fluorescence, whereas excitation with 387/11 nm and detection at 447/60 nm was used to monitor blue fluorescence. By staining for F-actin, cell spreading and formation of stress fibers in KC after 3 h adhesion were investigated (FIG. 6).

Molecule | cell coverage area within a defined region (9.12 mm^2) ([1]; KC, 1 h adhesion, comparison with bovine fibronectin coating and TCT plastic, serum-free) | quality (grading) of focal adhesions [2] | cell morphology (F-actin) [3] | adhesion in each individual experiment [1] | spreading of KC (total cell area in 4× micrographs) [3]
BFN: fibronectin from bovine plasma (Sigma-Aldrich F1137), coated at 5 μg/cm^2 [reference compound] | bound equally well to the BFN and the FNCC-silk after 1 h adherence, and importantly both significantly better than TCT |  |  |  | 
B1 |  | variation of focal adhesion quality is larger in cells on RGD, FNSS and FNVS than on FNCC-silk | a higher proportion of cells with a rounded appearance |  | 
B2 |  | both prominent and subtle focal adhesions | a higher proportion of cells with a rounded appearance | varied from being similar to RGD-silk to being only somewhat lower than on FNCC-silk | but not FNSS or FNVS films, gave a significantly increased spreading of KC compared to RGD-film
B3 |  | both prominent and subtle focal adhesions | a higher proportion of cells with a rounded appearance | varied from being similar to RGD-silk to being only somewhat lower than on FNCC-silk | but not FNSS or FNVS films, gave a significantly increased spreading of KC compared to RGD-film
